Source: US20220127354A1 (Amgen, published 2022)
Changes are numbered by the printed parent chain. Names may count otherwise.

Key:
Test in all cases: flow cytometry, transfected 293T cells
[1] = biological target: T1, muCDH19(44-362)::huCDH19(365-772) with Flag tag (construct G, Hu EC4-5) (human/mouse chimera)
T1 construct: leader left out; the entry starts at residue 44; also called C137917
T1 chain: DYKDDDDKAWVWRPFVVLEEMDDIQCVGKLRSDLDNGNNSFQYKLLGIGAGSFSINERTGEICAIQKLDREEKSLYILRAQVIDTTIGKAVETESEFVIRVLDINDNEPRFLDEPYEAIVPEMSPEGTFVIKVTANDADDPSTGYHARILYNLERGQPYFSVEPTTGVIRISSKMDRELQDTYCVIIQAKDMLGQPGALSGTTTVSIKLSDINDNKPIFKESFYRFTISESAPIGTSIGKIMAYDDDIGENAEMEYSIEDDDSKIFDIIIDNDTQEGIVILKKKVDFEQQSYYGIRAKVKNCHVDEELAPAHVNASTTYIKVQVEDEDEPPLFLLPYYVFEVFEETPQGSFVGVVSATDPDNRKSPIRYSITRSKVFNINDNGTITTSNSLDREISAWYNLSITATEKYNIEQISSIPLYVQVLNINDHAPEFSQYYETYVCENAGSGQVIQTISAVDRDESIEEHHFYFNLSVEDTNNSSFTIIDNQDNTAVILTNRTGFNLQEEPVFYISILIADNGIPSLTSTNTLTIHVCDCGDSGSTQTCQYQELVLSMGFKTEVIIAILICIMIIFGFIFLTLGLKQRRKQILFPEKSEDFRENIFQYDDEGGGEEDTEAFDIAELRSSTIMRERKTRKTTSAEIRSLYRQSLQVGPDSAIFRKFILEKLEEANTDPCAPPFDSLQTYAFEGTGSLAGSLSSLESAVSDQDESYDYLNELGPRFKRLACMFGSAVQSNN
From the text: (§1) The experiment included assaying the anti-CDH19 antibodies against mouse Cadherin19 to determine suitability for binning on these human/mouse chimeras.

[2] = biological target: T2, muCDH19(44-139)::huCDH19(142-364)::muCDH19(363-770) with Flag tag (construct E, Hu EC2-3) (human/mouse chimera)
T2 construct: leader left out; the entry starts at residue 44; also called C137847
From the text: as §1

[3] = biological target: T3, huCDH19(44-249)::muCDH19(248-770) with Flag tag (construct C, Hu EC1-2) (human/mouse chimera)
T3 construct: leader left out; the entry starts at residue 44; also called C137896
From the text: as §1

[4] = biological target: huCDH19(44-772) with Flag tag (construct A, Hu EC1-5) (human, UniProt Q9H159 44-772)
From the text: as §1

[5] = biological target: T4, muCDH19(44-461)::huCDH19(464-772) with Flag tag (construct H, Hu EC5) (human/mouse chimera)
T4 construct: leader left out; the entry starts at residue 44; also called C137915
T4 chain: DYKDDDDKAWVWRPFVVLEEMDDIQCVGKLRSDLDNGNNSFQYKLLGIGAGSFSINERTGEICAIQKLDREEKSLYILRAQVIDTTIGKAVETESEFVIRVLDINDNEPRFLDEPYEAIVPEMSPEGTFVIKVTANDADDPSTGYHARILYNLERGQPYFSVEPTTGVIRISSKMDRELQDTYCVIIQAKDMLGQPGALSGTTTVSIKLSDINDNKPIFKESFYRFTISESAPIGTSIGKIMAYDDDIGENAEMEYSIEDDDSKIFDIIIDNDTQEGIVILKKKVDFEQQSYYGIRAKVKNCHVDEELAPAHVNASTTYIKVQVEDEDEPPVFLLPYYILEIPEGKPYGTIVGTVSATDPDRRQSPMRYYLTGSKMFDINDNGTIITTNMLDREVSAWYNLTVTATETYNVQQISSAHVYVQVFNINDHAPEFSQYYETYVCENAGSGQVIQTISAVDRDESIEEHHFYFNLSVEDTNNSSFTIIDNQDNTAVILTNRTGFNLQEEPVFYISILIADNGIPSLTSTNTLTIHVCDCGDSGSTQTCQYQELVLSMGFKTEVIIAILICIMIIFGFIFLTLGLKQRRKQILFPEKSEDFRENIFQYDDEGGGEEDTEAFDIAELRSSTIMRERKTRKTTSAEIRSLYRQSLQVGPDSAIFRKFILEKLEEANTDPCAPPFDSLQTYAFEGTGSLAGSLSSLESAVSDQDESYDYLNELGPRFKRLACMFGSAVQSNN
From the text: as §1

[6] = biological target: T5, huCDH19(44-141)::muCDH19(140-770) with Flag tag (construct B, Hu EC1) (human/mouse chimera)
T5 construct: leader left out; the entry starts at residue 44; also called C137897
From the text: as §1

[7] = biological target: T6, muCDH19(44-247)::huCDH19(250-364)::muCDH19(363-770) with Flag tag (construct F, Hu EC3) (human/mouse chimera)
T6 construct: leader left out; the entry starts at residue 44; also called C137911
From the text: as §1

[8] = biological target: T7, muCDH19(44-770) with Flag tag (construct I, Mu EC1-5) (mouse)
T7 construct: leader left out; the entry starts at residue 44; also called Mo EC1-5; mouse Cadherin19
T7 chain: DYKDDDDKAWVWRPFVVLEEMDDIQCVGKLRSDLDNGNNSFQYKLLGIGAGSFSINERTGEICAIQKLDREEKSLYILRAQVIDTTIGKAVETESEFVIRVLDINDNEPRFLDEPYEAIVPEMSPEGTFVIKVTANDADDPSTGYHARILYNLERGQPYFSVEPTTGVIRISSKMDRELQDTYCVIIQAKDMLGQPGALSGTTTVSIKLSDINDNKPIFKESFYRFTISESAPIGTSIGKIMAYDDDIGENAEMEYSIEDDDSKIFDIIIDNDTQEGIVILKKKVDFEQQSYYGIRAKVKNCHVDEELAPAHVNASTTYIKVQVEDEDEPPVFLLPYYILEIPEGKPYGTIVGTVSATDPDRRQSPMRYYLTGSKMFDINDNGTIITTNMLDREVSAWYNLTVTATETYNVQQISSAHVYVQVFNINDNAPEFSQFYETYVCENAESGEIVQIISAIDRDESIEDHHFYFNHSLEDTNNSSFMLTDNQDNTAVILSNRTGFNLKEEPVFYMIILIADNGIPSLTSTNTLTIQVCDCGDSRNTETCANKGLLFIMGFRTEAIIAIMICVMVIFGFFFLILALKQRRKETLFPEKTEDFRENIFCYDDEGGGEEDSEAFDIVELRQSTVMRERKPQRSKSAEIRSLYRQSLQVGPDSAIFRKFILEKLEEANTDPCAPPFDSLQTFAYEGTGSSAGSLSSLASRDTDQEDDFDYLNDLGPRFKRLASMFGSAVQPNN
From the text: as §1

[9] = biological target: T8, muCDH19(44-139)::huCDH19(142-249)::muCDH19(248-770) with Flag tag (construct D, Hu EC2) (human/mouse chimera)
T8 construct: leader left out; the entry starts at residue 44; also called C137913
T8 chain: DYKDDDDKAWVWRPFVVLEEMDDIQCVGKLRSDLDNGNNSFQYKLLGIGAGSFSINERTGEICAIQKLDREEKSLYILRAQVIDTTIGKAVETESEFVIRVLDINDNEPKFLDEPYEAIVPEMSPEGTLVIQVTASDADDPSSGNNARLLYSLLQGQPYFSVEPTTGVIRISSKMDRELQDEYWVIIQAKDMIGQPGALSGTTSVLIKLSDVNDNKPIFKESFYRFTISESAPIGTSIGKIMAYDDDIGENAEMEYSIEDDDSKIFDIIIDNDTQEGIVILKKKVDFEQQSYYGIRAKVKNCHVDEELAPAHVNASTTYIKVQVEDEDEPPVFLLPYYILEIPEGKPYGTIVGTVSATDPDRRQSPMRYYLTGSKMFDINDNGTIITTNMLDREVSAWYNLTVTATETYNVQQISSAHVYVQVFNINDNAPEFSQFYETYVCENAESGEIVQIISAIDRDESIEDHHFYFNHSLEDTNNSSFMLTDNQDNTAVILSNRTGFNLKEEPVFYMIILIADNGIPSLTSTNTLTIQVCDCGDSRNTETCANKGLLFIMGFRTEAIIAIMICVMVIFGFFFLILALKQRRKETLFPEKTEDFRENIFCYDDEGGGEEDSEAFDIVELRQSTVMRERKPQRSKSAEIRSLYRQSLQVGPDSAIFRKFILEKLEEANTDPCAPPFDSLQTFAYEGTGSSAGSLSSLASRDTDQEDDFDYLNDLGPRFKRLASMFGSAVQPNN
From the text: as §1

Measured: binding result

B1: hu anti-<huCDH19> 2G6 (1-477)(R17G) VH::huIgG1z + 23A10.3 (1-231)(C42S) VL::huLLC-C2 (Ab ID 14304) (antibody, V domains shown)
VH: QVQLVESGGGVVQPGGSLRLSCAASGFTFSSYGMHWVRQAPGKGLEWVAFIWYDGSNKYYADSVKDRFTISRDNSKNTLYLQMKSLRAEDTAVYYCARRAGIIGTIGYYYGMDVWGQGTTVTVSS
VL: SYELTQPPSVSVSPGQTASITCSGDRLGEKYVSWYQQKPGQSPILVIYQDNKWPSGIPERFSGSNSGNTATLTISGTQAMDEADYYCQAWDSSTVVFGGGTKLTVLG
notes: light chain is that of 23A10.3 (C42S); Bin 4
binds: [1] | [2] | [3] | [4] | [5] | [6] | [7] | [8] | [9]

B2: hu anti-<huCDH19> 2G6 (1-477)(R17G,D61E,D72E,K94N) VH::huIgG1z + 2G6 (1-234)(C42S,D110E) VL::huLLC-C1 (Ab ID 14039) (antibody, V domains shown)
VH: B1 VH with D54E, D62E, K84N
VL: B1 VL with V32T, K38R, I44L, N51T, W53R, D91E
notes: Engineered variant of 2G6; the entries already carry the changes; Bin 4
binds: [1] | [2] | [3] | [4] | [5] | [6] | [7] | [8] | [9]
